This note sets out measurements from PMC5623693, “Rb‐independent E2F3 promotes cell proliferation and alters expression of genes involved in metabolism and inflammation” (FEBS Open Bio, 2017).

No end group written: not given here. *: point of attachment. 5‑TAMRA = CN(C)c1ccc2c(-c3ccc(C(=O)*)cc3C(=O)[O-])c3ccc(N(C)C)cc3[o+]c2c1

Common to all, as to assay: fluorescence polarisation; TAMRA-labeled peptide (100 nM stock, 1 uL in 10 uL final) with purified protein serially diluted 1:2; 20 mM HEPES, 100 mM KCl, 0.1% Tween-20, 5 mM DTT, pH 7.8; 20 min in the dark at room temperature; Kd by Michaelis-Menten equation, least-squares nonlinear regression
(Polarisation of emitted light reports the rotation of a fluorescent probe.)

The target of experiment [1] is Tamra-labeled E2F1 WT peptide (human).
In experiment [2] the target is Tamra-labeled E2F1-mutant peptide (L415Q) (human).
Experiment [3] deals with T1, GST-pRb (aa379-928) (UniProt P06400 379-928).
T1 construct: retinoblastoma protein pRb, residues 379-928
T1 sequence (looked up): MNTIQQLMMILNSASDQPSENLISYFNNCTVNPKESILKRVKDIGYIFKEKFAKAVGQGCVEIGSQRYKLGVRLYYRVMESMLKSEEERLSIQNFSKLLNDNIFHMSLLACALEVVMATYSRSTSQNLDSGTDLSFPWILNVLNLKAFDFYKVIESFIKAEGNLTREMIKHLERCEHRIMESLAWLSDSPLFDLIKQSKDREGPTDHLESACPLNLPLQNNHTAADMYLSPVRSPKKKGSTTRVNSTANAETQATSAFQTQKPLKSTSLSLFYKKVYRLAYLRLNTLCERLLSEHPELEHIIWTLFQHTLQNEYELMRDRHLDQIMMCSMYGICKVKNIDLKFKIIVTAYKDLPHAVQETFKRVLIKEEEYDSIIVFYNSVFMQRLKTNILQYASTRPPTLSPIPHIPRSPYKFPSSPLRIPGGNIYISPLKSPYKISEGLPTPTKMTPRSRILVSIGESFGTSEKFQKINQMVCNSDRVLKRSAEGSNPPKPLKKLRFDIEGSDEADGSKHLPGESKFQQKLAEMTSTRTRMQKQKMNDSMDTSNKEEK
The conditions noted are these: both partners purified.

The Kd is a measure of binding affinity in units of concentration. Low readings indicate a tighter complex, high ones a looser complex. Turning to “HIS-p107 (aa379-1104) (domain or fragment)”, the values for the equilibrium dissociation constant (Kd) in experiment [1] and in experiment [2] were 7 µM and 200 µM, respectively.

B1: Tamra-labeled E2F1-mutant peptide (L415Q) (peptide)
peptide: {5‑TAMRA}-EALDYHFGQEEGEGIRDLFDCDFG
notes: also called E2F1 L415Q peptide; LQ; source: synthetic peptide (Peptide 2.0)
For the molecule B1, the dissociation constant Kd in experiment [3] is 20 µM.

B2: Tamra-labeled E2F1 WT peptide (peptide)
peptide: {5‑TAMRA}-EALDYHFGLEEGEGIRDLFDCDFG
notes: L415 is the ninth letter; also called WT E2F1 peptide; E2F1 C-terminal peptide; source: synthetic peptide (United BioSystems)
Take B2: the Kd in experiment [3] was roughly 3 µM.
